In US9963506B2, “Human-mouse chimeric anti-CD147 antibody with non-fucosylated glycosylation” (Fourth Military Medical University, priority 2015, dated 2018):

Molecular target: T1, CD147^+ A549 cells (Homo sapiens, UniProt P35613)
T1 construct: endogenous in cells; host or cells: A549 (human lung cancer cell line)
T1 sequence (P35613 22-269 isoform P35613-2 limits assumed): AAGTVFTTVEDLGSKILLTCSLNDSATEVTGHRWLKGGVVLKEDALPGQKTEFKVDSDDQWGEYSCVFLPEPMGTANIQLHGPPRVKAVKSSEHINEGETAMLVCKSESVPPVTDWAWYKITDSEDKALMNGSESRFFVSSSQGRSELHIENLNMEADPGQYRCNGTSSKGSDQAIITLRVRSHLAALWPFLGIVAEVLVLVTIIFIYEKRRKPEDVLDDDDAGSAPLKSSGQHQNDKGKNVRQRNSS
Test: Antigen-binding activity by flow cytometry
Experimental: The antibody concentration is 0.001 μg/mL, 0.01 μg/mL, 0.1 μg/mL, 1 μg/ml and 10 μg/mL, respectively.
A549 cells (10^6 cells) were incubated with the Metuzumab (HcHAb18) and cHAb18 antibody, respectively, in PBS with 0.1% BSA at 4° C. for 1 h. After three washes in PBS with 0.1% BSA, cells were incubated with the FITC-conjugated Rabbit anti-Human IgG Fc Secondary Antibody (Pierce) at 4° C. in the dark for 45 min. Cells were then washed three times and suspended in PBS for analysis using a FACS Calibur flow cytometer (BD, New Jersey, U.S.). Relative antigen expression is reported as median fluorescence intensity (MFI).

cHAb18: human-mouse chimeric anti-CD147 antibody, variable domains from HAb18, human IgG1 constant domains, fucosylated (CHO K1)
CD147-binding ability, Metuzumab compared with cHAb18 (FIG. 4): similar
Binding to CD147^+ A549 cells (FIG. 4, 0.001-10 μg/mL): bound
